Experiment [1] concerns the target T1, human FAP (huFAP) expressed on cells (human, UniProt Q12884 1-760).
T1 construct: also called WI-38 cells
T1 sequence: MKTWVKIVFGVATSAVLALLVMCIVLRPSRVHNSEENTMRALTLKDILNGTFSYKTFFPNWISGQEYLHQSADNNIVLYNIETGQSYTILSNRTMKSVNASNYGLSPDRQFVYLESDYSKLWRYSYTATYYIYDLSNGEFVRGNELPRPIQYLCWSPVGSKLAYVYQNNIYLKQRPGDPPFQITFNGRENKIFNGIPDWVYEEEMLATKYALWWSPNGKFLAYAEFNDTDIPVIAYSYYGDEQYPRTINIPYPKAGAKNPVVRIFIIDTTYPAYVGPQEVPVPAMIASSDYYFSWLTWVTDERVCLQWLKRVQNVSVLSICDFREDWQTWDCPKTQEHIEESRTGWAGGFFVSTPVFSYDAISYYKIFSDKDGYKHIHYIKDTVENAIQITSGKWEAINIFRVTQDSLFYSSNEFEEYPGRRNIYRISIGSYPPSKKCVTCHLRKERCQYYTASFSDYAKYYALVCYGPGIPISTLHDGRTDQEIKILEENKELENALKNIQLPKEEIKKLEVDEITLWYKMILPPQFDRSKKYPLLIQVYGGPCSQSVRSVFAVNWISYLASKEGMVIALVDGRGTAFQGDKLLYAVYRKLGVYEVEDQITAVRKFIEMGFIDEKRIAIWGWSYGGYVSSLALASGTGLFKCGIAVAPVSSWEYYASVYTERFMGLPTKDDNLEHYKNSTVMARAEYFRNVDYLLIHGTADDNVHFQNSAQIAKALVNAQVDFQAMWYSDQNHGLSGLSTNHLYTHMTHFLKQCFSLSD
In words: FACS, 293FF cells stably expressing huFAP, IgG at 2.5 ug/ml. Here is the method: (§1) The binding of all test and control antibodies to the cells was tested at a single concentration of 2.5 ug/ml. Goat-anti-human IgG F(ab)2-PE (Invitrogen, H10104) was used as secondary antibody (1:100 in FACS buffer). Ab0625 was used at 10 ug/ml and its binding was detected using Ab0250 (Becton Dickinson, 550767) (1:100 in FACS buffer). The FACS buffer containing PBS (Gibco, cat. #10010-015), 0.5% BSA (Thermo Scientific, cat. #37525), and 2 mM EDTA (Invitrogen, cat. #15575-020) was kept ice cold throughout the assay.
(§2) The target cells were harvested, counted, and centrifuged for 5 min at 300 g at 4 °C. Cells were then resuspended in FACS buffer at a concentration of 1×10⁶ cells/ml and transferred (200,000 cells/well) to a U-bottom 96-well FACS plate (BD, cat. #353910). Cells were then centrifuged for 3 min at 300 g at 4° C. and supernatant was discarded. 50 μl of primary antibody solutions were added to the cells, mixed, and incubated for 30 min at 2-8° C. in the dark. Cells were washed by adding 150 μl FACS buffer and centrifuged for 3 min at 300 g at 4° C. Supernatant was discarded, and cells were washed again by adding 200 μl FACS buffer to the plate. Cells were then centrifuged for 3 min at 300 g at 4° C. and afterwards the supernatant was discarded. 50 μl of secondary antibody solutions were added to the cells, mixed, and incubated for 30 min at 2-8° C. in the dark. […]

The target in experiment [2] is T2, mouse FAP (moFAP) expressed on 293FF cells (mouse, UniProt P97321 1-761).
T2 sequence: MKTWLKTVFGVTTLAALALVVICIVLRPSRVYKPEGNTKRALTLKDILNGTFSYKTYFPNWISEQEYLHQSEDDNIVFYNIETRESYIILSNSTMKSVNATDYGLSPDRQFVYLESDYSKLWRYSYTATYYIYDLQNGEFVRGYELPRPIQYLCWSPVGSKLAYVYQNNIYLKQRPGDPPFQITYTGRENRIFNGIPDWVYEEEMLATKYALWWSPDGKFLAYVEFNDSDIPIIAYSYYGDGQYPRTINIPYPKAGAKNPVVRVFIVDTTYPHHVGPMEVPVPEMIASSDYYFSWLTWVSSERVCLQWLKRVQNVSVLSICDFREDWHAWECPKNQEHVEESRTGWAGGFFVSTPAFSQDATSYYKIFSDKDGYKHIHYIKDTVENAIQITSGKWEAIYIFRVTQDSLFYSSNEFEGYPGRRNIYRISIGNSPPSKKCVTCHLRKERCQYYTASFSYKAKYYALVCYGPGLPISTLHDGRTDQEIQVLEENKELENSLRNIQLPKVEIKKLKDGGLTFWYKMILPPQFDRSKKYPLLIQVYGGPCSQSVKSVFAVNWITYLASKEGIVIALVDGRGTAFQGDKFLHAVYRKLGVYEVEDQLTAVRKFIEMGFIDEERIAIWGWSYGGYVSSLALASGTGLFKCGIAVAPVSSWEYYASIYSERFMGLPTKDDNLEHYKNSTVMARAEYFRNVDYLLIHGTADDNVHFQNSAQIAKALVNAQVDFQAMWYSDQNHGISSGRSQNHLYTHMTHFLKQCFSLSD
In words: FACS, 293FF cells transfected with moFAP, IgG at 2.5 ug/ml. On the procedure:
as §1, §2

Data on two molecules can be found in patent US20240218070A1 (MERUS N V, published 2024).

B1: anti-human FAP bivalent monospecific IgG comprising heavy chain variable region SEQ ID NO: 11 (antibody, V domains shown)
VH: EVQLVESGGGLVQPGGSLRLSCAASGFTFSSYAMIWVRQAPGKGLEWVSAISGSGGYTFNADSVKGRFTMSRDNSKNTLYLQMNSLRAEDTAVYYCAKRDGGYEGGAFDIWGQGTLVTVSS
VL: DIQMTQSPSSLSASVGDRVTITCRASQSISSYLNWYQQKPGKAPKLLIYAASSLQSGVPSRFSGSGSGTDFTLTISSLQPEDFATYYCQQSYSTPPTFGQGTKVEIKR
notes: IgG1 format, common light chain VK1-39/JK1
Take B1: the binding result in experiment [1] was “binds”.

B2: anti-human FAP bivalent monospecific IgG comprising heavy chain variable region SEQ ID NO: 69 (antibody, V domains shown)
VH: EVQLVETGGGLIQPGGSLRLSCAASGFTVSSNYMSWVRQAPGKGLEWVSVIYSGGSTYYADSVKGRFTISRDNSKNTLYLQMNSLRAEDTAVYYCARGPTDAYPYLDYLWGQGTLVTVSS
VL: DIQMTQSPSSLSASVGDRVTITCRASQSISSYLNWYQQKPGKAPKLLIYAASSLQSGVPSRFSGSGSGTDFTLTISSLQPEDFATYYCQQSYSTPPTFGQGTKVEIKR
notes: IgG1 format, common light chain VK1-39/JK1; also called human/mouse cross-reactive FAP IgG
Consider B2, for which the binding result in experiment [2] was “binds”.
